Columns and labels:
Experiment in all cases: fluorescence anisotropy
STAU1 dsRBD3/4 = STAU1 dsRBD3/4 (Homo sapiens, UniProt O95793-2 102-274)
dsRBD3/4 I105A S106A = dsRBD3/4 I105A S106A (Homo sapiens, UniProt O95793-2 102-274, I105A;S106A)
STAU1 dsRBD3 = STAU1 dsRBD3 (Homo sapiens, UniProt O95793-2 102-181)
dsRBD3/4 F109A = dsRBD3/4 F109A (Homo sapiens, UniProt O95793-2 102-274, F109A)
dsRBD3/4 S208A = dsRBD3/4 S208A (Homo sapiens, UniProt O95793-2 102-274, S208A)
dsRBD3 F109A = dsRBD3 F109A (Homo sapiens, UniProt O95793-2 102-181, F109A)
[1] = biological target: dsRBD3/4 I105A S106A E110A L113A (Homo sapiens, UniProt O95793-2 102-274, I105A;S106A;E110A;L113A)
dsRBD3/4 E110A L113A = dsRBD3/4 E110A L113A (Homo sapiens, UniProt O95793-2 102-274, E110A;L113A)
dsRBD3/4 K133A = dsRBD3/4 K133A (Homo sapiens, UniProt O95793-2 102-274, K133A)
[2] = biological target: dsRBD3/4 S208A Q212A Q215A (Homo sapiens, UniProt O95793-2 102-274, S208A;Q212A;Q215A)
[3] = biological target: dsRBD3/4 I105A S106A S208A Q212A Q215A (Homo sapiens, UniProt O95793-2 102-274, I105A;S106A;S208A;Q212A;Q215A)
dsRBD3/4 F109A R209A = dsRBD3/4 F109A R209A (Homo sapiens, UniProt O95793-2 102-274, F109A;R209A)
dsRBD4 Q212A Q215A = dsRBD4 Q212A Q215A (Homo sapiens, UniProt O95793-2 205-274, Q212A;Q215A)
dsRBD3 I105A S106A = dsRBD3 I105A S106A (Homo sapiens, UniProt O95793-2 102-181, I105A;S106A)
[4] = biological target: dsRBD3/4 E110A L113A Q212A Q215A (Homo sapiens, UniProt O95793-2 102-274, E110A;L113A;Q212A;Q215A)
dsRBD3/4 Q212A Q215A = dsRBD3/4 Q212A Q215A (Homo sapiens, UniProt O95793-2 102-274, Q212A;Q215A)
dsRBD4 S208A Q212A Q215A = dsRBD4 S208A Q212A Q215A (Homo sapiens, UniProt O95793-2 205-274, S208A;Q212A;Q215A)
dsRBD3 E110A L113A = dsRBD3 E110A L113A (Homo sapiens, UniProt O95793-2 102-181, E110A;L113A)
dsRBD3/4 R234A R236A = dsRBD3/4 R234A R236A (Homo sapiens, UniProt O95793-2 102-274, R234A;R236A)
STAU1 dsRBD4 = STAU1 dsRBD4 (Homo sapiens, UniProt O95793-2 205-274)
dsRBD3/4 R209A = dsRBD3/4 R209A (Homo sapiens, UniProt O95793-2 102-274, R209A)
dsRBD3/4 R209A, sequence (O95793 183-355 R290A): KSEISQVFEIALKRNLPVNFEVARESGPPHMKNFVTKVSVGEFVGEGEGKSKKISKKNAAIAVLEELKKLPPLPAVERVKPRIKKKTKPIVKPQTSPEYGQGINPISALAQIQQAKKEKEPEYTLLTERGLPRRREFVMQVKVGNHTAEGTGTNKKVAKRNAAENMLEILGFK

STAU1 dsRBD3/4, sequence (O95793 183-355): as the sequence (O95793 183-355 R290A) above, with A108R counted along it
dsRBD3/4 E110A L113A Q212A Q215A, sequence (O95793 183-355 E191A/L194A/Q293A/Q296A): as the sequence (O95793 183-355 R290A) above, with E9A, L12A, A108R, Q111A, Q114A counted along it
dsRBD3 F109A, sequence (O95793 183-262 F190A): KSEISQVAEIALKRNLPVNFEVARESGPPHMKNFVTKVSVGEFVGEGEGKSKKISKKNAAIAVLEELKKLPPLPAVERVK
dsRBD3/4 S208A Q212A Q215A, sequence (O95793 183-355 S289A/Q293A/Q296A): as the sequence (O95793 183-355 R290A) above, with S107A, A108R, Q111A, Q114A counted along it
dsRBD3/4 K133A, sequence (O95793 183-355 K214A): as the sequence (O95793 183-355 R290A) above, with K32A, A108R counted along it
dsRBD4 Q212A Q215A, sequence (O95793 286-355 Q293A/Q296A): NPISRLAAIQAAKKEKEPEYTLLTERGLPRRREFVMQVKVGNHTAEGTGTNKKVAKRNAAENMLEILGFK
dsRBD3 E110A L113A, sequence (O95793 183-262 E191A/L194A): as the sequence (O95793 183-262 F190A) above, with A8F, E9A, L12A counted along it
dsRBD3/4 E110A L113A, sequence (O95793 183-355 E191A/L194A): as the sequence (O95793 183-355 R290A) above, with E9A, L12A, A108R counted along it
dsRBD3/4 F109A R209A, sequence (O95793 183-355 F190A/R290A): as the sequence (O95793 183-355 R290A) above, with F8A counted along it
dsRBD3/4 S208A, sequence (O95793 183-355 S289A): as the sequence (O95793 183-355 R290A) above, with S107A, A108R counted along it
dsRBD3 I105A S106A, sequence (O95793 183-262 I186A/S187A): as the sequence (O95793 183-262 F190A) above, with I4A, S5A, A8F counted along it
dsRBD3/4 F109A, sequence (O95793 183-355 F190A): as the sequence (O95793 183-355 R290A) above, with F8A, A108R counted along it
dsRBD3/4 I105A S106A E110A L113A, sequence (O95793 183-355 I186A/S187A/E191A/L194A): as the sequence (O95793 183-355 R290A) above, with I4A, S5A, E9A, L12A, A108R counted along it
dsRBD3/4 I105A S106A, sequence (O95793 183-355 I186A/S187A): as the sequence (O95793 183-355 R290A) above, with I4A, S5A, A108R counted along it
dsRBD3/4 R234A R236A, sequence (O95793 183-355 R315A/R317A): as the sequence (O95793 183-355 R290A) above, with A108R, R133A, R135A counted along it
dsRBD4 S208A Q212A Q215A, sequence (O95793 286-355 S289A/Q293A/Q296A): as the sequence (O95793 286-355 Q293A/Q296A) above, with S4A counted along it
STAU1 dsRBD4, sequence (O95793 286-355): as the sequence (O95793 286-355 Q293A/Q296A) above, with A8Q, A11Q counted along it
dsRBD3/4 I105A S106A S208A Q212A Q215A, sequence (O95793 183-355 I186A/S187A/S289A/Q293A/Q296A): as the sequence (O95793 183-355 R290A) above, with I4A, S5A, S107A, A108R, Q111A, Q114A counted along it
dsRBD3/4 Q212A Q215A, sequence (O95793 183-355 Q293A/Q296A): as the sequence (O95793 183-355 R290A) above, with A108R, Q111A, Q114A counted along it
STAU1 dsRBD3, sequence (O95793 183-262): as the sequence (O95793 183-262 F190A) above, with A8F counted along it

GGCGAGUGCCAGAAGCUGUCUCCUUCGGGAGGCAGUUUCUGGUACUCGCC (structured_RNA) [long ARF1 SBS (19 bp, UUCG loop)] gave a Kd (STAU1 dsRBD3/4) of 26.5 ± 2.9 nM.

GGCAGAAGCUGCCUCUUCGGAGGCAGUUUCUGCC (structured_RNA) [top 2/3 ARF1 SBS (sARF1 SBS)] gave a Kd (dsRBD3/4 I105A S106A) of 28.8 ± 2.7 nM, a Kd (STAU1 dsRBD3) of 41.4 ± 1.5 nM and a Kd (dsRBD3/4 F109A) of 29.7 ± 5.8 nM. The Kd (dsRBD3/4 S208A) was 28 ± 4.4 nM, the Kd (dsRBD3 F109A) was 98.2 ± 8.7 nM and the Kd [1] was 21.8 ± 6.4 nM. The Kd (dsRBD3/4 E110A L113A) was 18.5 ± 4.3 nM, the Kd (dsRBD3/4 K133A) was 23.2 ± 9.7 nM and the Kd [2] was 87.2 ± 3 nM. The Kd [3] was 43.7 ± 5.2 nM, the Kd (dsRBD3/4 F109A R209A) was 27.7 ± 5.5 nM and the Kd (dsRBD4 Q212A Q215A) was 121 ± 15 nM. It also gave a Kd (dsRBD3 I105A S106A) of 147 ± 35.6 nM, a Kd [4] of 18.5 ± 1.1 nM and a Kd (dsRBD3/4 Q212A Q215A) of 15.3 ± 0.7 nM. For the same binder, the Kd (dsRBD4 S208A Q212A Q215A) was 390 ± 38.4 nM, the Kd (dsRBD3 E110A L113A) was 31.5 ± 1.7 nM and the Kd (dsRBD3/4 R234A R236A) was 26 ± 9.1 nM. For the same binder, the Kd (STAU1 dsRBD4) was 74.8 ± 17.6 nM, the Kd (dsRBD3/4 R209A) was 17.7 ± 4.1 nM and the Kd (STAU1 dsRBD3/4) was 17.8 ± 4.3 nM.

GGAGUGCCAGAAGCUACGGUUUCUGGUACUCC (structured_RNA) [bottom 2/3 ARF1 SBS] was tested, and the Kd (STAU1 dsRBD3/4) was 31 ± 0.1 nM.
